Consider 24 molecules from US20230002493A1 (ORIONIS BIOSCIENCES, published 2023).

The target in experiment [1] is T1, recombinant PD-L1 extracellular domain fused to the mouse IgG1 Fc domain (SinoBiologicals) (human; mouse, UniProt Q9NZQ7 19-238).
T1 construct: extracellular domain; also called human PD-L1-mouse Fc; PD-L1-mouse Fc protein; not shown: mouse IgG1 Fc domain
Briefly: BLI (Octet Red 96); ratio of the printed KDs, variant over 2LIG189. As for the experimental part: (§1) Affinities of resulting variants were measured using the bio-layer interferometry technology on an Octet Red 96 instrument (ForteBio). In brief, recombinant PD-L1 extracellular domain fused to the mouse IgG1 Fc domain (SinoBiologicals) was immobilized on anti-murine IgG quantitation (AMQ) biosensors (ForteBio). Loaded sensors were incubated with a serial dilution of PD-L1 VHH variant, association and dissociation monitored and kinetic parameters were calculated using the Octet Data Analysis software v10 (ForteBio).
(§2) The aspartic acid at position 1 was included to avoid the risk of pyroglutamate formation. […] Resulting mutants were purified and affinities measured as described in Example 1.

Experiment [2] deals with T1, recombinant PD-L1 extracellular domain …. Briefly: BLI (Octet Red 96), PD-L1-mouse IgG1 Fc on AMQ biosensors, VHH dilution series. As for the experimental part: as §1, §2

T1 sequence (Q9NZQ7 19-238): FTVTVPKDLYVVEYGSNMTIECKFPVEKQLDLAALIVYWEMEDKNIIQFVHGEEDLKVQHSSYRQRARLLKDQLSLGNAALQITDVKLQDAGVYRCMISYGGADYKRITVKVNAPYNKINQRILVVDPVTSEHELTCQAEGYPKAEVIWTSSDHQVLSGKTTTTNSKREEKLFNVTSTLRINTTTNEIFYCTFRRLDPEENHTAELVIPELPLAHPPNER

B1: 2LIG189_D33E (VHH)
VHH: QVQLQESGGGLVQAGGSLRLSCAASGKIFSGNEMGWYRQAPGKQRELVGIITSGGITDYADAVKGRFTISRDNAKNMMYLQMNSLKPEDTAVYYCNMRDRTIWWGQGTQVTVSS
Broadly, the Kd is the constant that tells how readily two partners part at equilibrium. Usually koff stands for a measure of how fast the partners let go of each other. As usually defined, the kon is the rate constant with which the complex forms. With B1, the “Ratio KD” value in experiment [1] amounted to 52.1. In addition, in experiment [2], the Kd amounted to 41.2 nM, the koff came out at 0.00883 s⁻¹ and the kon is 214000 M⁻¹ s⁻¹.

B2: 2LIG189_N32E (VHH)
VHH: QVQLQESGGGLVQAGGSLRLSCAASGKIFSGEDMGWYRQAPGKQRELVGIITSGGITDYADAVKGRFTISRDNAKNMMYLQMNSLKPEDTAVYYCNMRDRTIWWGQGTQVTVSS
Turning to B2, the “Ratio KD” value in experiment [1] came out at 0.68. Moreover, in experiment [2], the Kd turned out to be 0.542 nM, the dissociation rate constant (koff) is 9.85e-05 s⁻¹ and the kon amounted to 182000 M⁻¹ s⁻¹.

B3: 2LIG189_D33V (VHH)
VHH: QVQLQESGGGLVQAGGSLRLSCAASGKIFSGNVMGWYRQAPGKQRELVGIITSGGITDYADAVKGRFTISRDNAKNMMYLQMNSLKPEDTAVYYCNMRDRTIWWGQGTQVTVSS
Turning to B3, the binding result in experiment [2] is given as “no binding”.

B4: 2LIG189_N32S (VHH)
VHH: QVQLQESGGGLVQAGGSLRLSCAASGKIFSGSDMGWYRQAPGKQRELVGIITSGGITDYADAVKGRFTISRDNAKNMMYLQMNSLKPEDTAVYYCNMRDRTIWWGQGTQVTVSS
For the molecule B4, the “Ratio KD” value in experiment [1] worked out at 2.27. In experiment [2], the Kd turned out to be 1.8 nM, the koff amounted to 0.000292 s⁻¹ and the on-rate (kon) came to 163000 M⁻¹ s⁻¹.

B5: 2LIG189_M97R (VHH)
VHH: QVQLQESGGGLVQAGGSLRLSCAASGKIFSGNDMGWYRQAPGKQRELVGIITSGGITDYADAVKGRFTISRDNAKNMMYLQMNSLKPEDTAVYYCNRRDRTIWWGQGTQVTVSS
As for B5, in experiment [2], the binding result is listed as “no binding”.

B6: 2LIG189_M97F (VHH)
VHH: QVQLQESGGGLVQAGGSLRLSCAASGKIFSGNDMGWYRQAPGKQRELVGIITSGGITDYADAVKGRFTISRDNAKNMMYLQMNSLKPEDTAVYYCNFRDRTIWWGQGTQVTVSS
Regarding B6, the “Ratio KD” value in experiment [1] worked out at 1.9. Also, in experiment [2], the Kd came out at 1.51 nM, the koff turned out to be 0.000208 s⁻¹ and the kon is 138000 M⁻¹ s⁻¹.

B7: 2LIG189_N32G (VHH)
VHH: QVQLQESGGGLVQAGGSLRLSCAASGKIFSGGDMGWYRQAPGKQRELVGIITSGGITDYADAVKGRFTISRDNAKNMMYLQMNSLKPEDTAVYYCNMRDRTIWWGQGTQVTVSS
As to B7, in experiment [1], the “Ratio KD” value is 24. Moreover, in experiment [2], the Kd turned out to be 19 nM, the koff was 0.00228 s⁻¹ and the kon turned out to be 120000 M⁻¹ s⁻¹.

B8: 2LIG189_D33R (VHH)
VHH: QVQLQESGGGLVQAGGSLRLSCAASGKIFSGNRMGWYRQAPGKQRELVGIITSGGITDYADAVKGRFTISRDNAKNMMYLQMNSLKPEDTAVYYCNMRDRTIWWGQGTQVTVSS
In the case of B8, the binding result in experiment [2] is reported as “no binding”.

B9: 2LIG189_D33I (VHH)
VHH: QVQLQESGGGLVQAGGSLRLSCAASGKIFSGNIMGWYRQAPGKQRELVGIITSGGITDYADAVKGRFTISRDNAKNMMYLQMNSLKPEDTAVYYCNMRDRTIWWGQGTQVTVSS
With B9, the binding result in experiment [2] is recorded as “no binding”.

B10: 2LIG189_N32V (VHH)
VHH: QVQLQESGGGLVQAGGSLRLSCAASGKIFSGVDMGWYRQAPGKQRELVGIITSGGITDYADAVKGRFTISRDNAKNMMYLQMNSLKPEDTAVYYCNMRDRTIWWGQGTQVTVSS
Take B10: in experiment [1], the “Ratio KD” value came out at 3.82. In experiment [2], the Kd was 3.02 nM, the koff came to 0.0009 s⁻¹ and the kon is 298000 M⁻¹ s⁻¹.

B11: 2LIG189_M97E (VHH)
VHH: QVQLQESGGGLVQAGGSLRLSCAASGKIFSGNDMGWYRQAPGKQRELVGIITSGGITDYADAVKGRFTISRDNAKNMMYLQMNSLKPEDTAVYYCNERDRTIWWGQGTQVTVSS
For the molecule B11, the binding result in experiment [2] is reported as “no binding”.

B12: 2LIG189_D33L (VHH)
VHH: QVQLQESGGGLVQAGGSLRLSCAASGKIFSGNLMGWYRQAPGKQRELVGIITSGGITDYADAVKGRFTISRDNAKNMMYLQMNSLKPEDTAVYYCNMRDRTIWWGQGTQVTVSS
For the molecule B12, the “Ratio KD” value in experiment [1] turned out to be 20.7. Also, in experiment [2], the Kd was 16.4 nM, the koff came to 0.0342 s⁻¹ and the kon stood at 2.08e+06 M⁻¹ s⁻¹.

B13: 2LIG189_D33Q (VHH)
VHH: QVQLQESGGGLVQAGGSLRLSCAASGKIFSGNQMGWYRQAPGKQRELVGIITSGGITDYADAVKGRFTISRDNAKNMMYLQMNSLKPEDTAVYYCNMRDRTIWWGQGTQVTVSS
Consider B13, for which, in experiment [1], the “Ratio KD” value came to 31.6. Besides, in experiment [2], the Kd was found to be 25 nM, the koff was 0.0118 s⁻¹ and the kon turned out to be 474000 M⁻¹ s⁻¹.

B14: 2LIG189_N32F (VHH)
VHH: QVQLQESGGGLVQAGGSLRLSCAASGKIFSGFDMGWYRQAPGKQRELVGIITSGGITDYADAVKGRFTISRDNAKNMMYLQMNSLKPEDTAVYYCNMRDRTIWWGQGTQVTVSS
Take B14: the “Ratio KD” value in experiment [1] is 0.7. In experiment [2], the Kd was found to be 0.55 nM, the koff was 0.000176 s⁻¹ and the kon came to 320000 M⁻¹ s⁻¹.

B15: 2LIG189_M97Q (VHH)
VHH: QVQLQESGGGLVQAGGSLRLSCAASGKIFSGNDMGWYRQAPGKQRELVGIITSGGITDYADAVKGRFTISRDNAKNMMYLQMNSLKPEDTAVYYCNQRDRTIWWGQGTQVTVSS
Regarding B15, the binding result in experiment [2] is listed as “no binding”.

B16: 2LIG189_N32A (VHH)
VHH: QVQLQESGGGLVQAGGSLRLSCAASGKIFSGADMGWYRQAPGKQRELVGIITSGGITDYADAVKGRFTISRDNAKNMMYLQMNSLKPEDTAVYYCNMRDRTIWWGQGTQVTVSS
As to B16, in experiment [1], the “Ratio KD” value came to 3.41. Moreover, in experiment [2], the Kd worked out at 2.7 nM, the off-rate constant (koff) amounted to 0.000733 s⁻¹ and the kon turned out to be 272000 M⁻¹ s⁻¹.

B17: 2LIG189_N32H (VHH)
VHH: QVQLQESGGGLVQAGGSLRLSCAASGKIFSGHDMGWYRQAPGKQRELVGIITSGGITDYADAVKGRFTISRDNAKNMMYLQMNSLKPEDTAVYYCNMRDRTIWWGQGTQVTVSS
B17: in experiment [1], the “Ratio KD” value was determined as 2.28. In addition, in experiment [2], the Kd amounted to 1.81 nM, the koff stood at 0.000446 s⁻¹ and the kon was 247000 M⁻¹ s⁻¹.

B18: 2LIG189_N32T (VHH)
VHH: QVQLQESGGGLVQAGGSLRLSCAASGKIFSGTDMGWYRQAPGKQRELVGIITSGGITDYADAVKGRFTISRDNAKNMMYLQMNSLKPEDTAVYYCNMRDRTIWWGQGTQVTVSS
On to B18, for which, in experiment [1], the “Ratio KD” value stood at 7.97. Moreover, in experiment [2], the Kd is 6.31 nM, the koff was determined as 0.00104 s⁻¹ and the kon worked out at 164000 M⁻¹ s⁻¹.

B19: 2LIG189_M97Y (VHH)
VHH: QVQLQESGGGLVQAGGSLRLSCAASGKIFSGNDMGWYRQAPGKQRELVGIITSGGITDYADAVKGRFTISRDNAKNMMYLQMNSLKPEDTAVYYCNYRDRTIWWGQGTQVTVSS
In the case of B19, the “Ratio KD” value in experiment [1] came to 6.09. Besides, in experiment [2], the Kd came out at 4.82 nM, the koff is 0.00146 s⁻¹ and the kon was determined as 303000 M⁻¹ s⁻¹.

B20: 2LIG189_N32L (VHH)
VHH: QVQLQESGGGLVQAGGSLRLSCAASGKIFSGLDMGWYRQAPGKQRELVGIITSGGITDYADAVKGRFTISRDNAKNMMYLQMNSLKPEDTAVYYCNMRDRTIWWGQGTQVTVSS
Take B20: in experiment [1], the “Ratio KD” value was found to be 2.04. Besides, in experiment [2], the Kd is 1.62 nM, the koff came to 0.000195 s⁻¹ and the kon turned out to be 121000 M⁻¹ s⁻¹.

B21: 2LIG189_M97H (VHH)
VHH: QVQLQESGGGLVQAGGSLRLSCAASGKIFSGNDMGWYRQAPGKQRELVGIITSGGITDYADAVKGRFTISRDNAKNMMYLQMNSLKPEDTAVYYCNHRDRTIWWGQGTQVTVSS
Take B21: in experiment [2], the binding result is on record as “no binding”.

B22: 2LIG189_N32I (VHH)
VHH: QVQLQESGGGLVQAGGSLRLSCAASGKIFSGIDMGWYRQAPGKQRELVGIITSGGITDYADAVKGRFTISRDNAKNMMYLQMNSLKPEDTAVYYCNMRDRTIWWGQGTQVTVSS
Consider B22, for which the “Ratio KD” value in experiment [1] came out at 8.23. In experiment [2], the Kd amounted to 6.51 nM, the koff is 0.000872 s⁻¹ and the kon was found to be 134000 M⁻¹ s⁻¹.

B23: 2LIG189_D33Y (VHH)
VHH: QVQLQESGGGLVQAGGSLRLSCAASGKIFSGNYMGWYRQAPGKQRELVGIITSGGITDYADAVKGRFTISRDNAKNMMYLQMNSLKPEDTAVYYCNMRDRTIWWGQGTQVTVSS
B23: the “Ratio KD” value in experiment [1] stood at 2.82. In experiment [2], the Kd was found to be 2.23 nM, the koff is 0.00835 s⁻¹ and the kon is 3.75e+06 M⁻¹ s⁻¹.

B24: 2LIG189_D33F (VHH)
VHH: QVQLQESGGGLVQAGGSLRLSCAASGKIFSGNFMGWYRQAPGKQRELVGIITSGGITDYADAVKGRFTISRDNAKNMMYLQMNSLKPEDTAVYYCNMRDRTIWWGQGTQVTVSS
B24: the “Ratio KD” value in experiment [1] turned out to be 12.4. Moreover, in experiment [2], the Kd worked out at 9.78 nM, the koff amounted to 0.0107 s⁻¹ and the kon stood at 1.09e+06 M⁻¹ s⁻¹.
